According to the DeepSol protein solubility set:

Test: soluble on expression in E. coli; label from the status in PepcDB or PDB records

Sequence	soluble on expression in E. coli
MGHHHHHHSHMTKHPPNRRGISFEVGAQLEARDRLKNWYPAHIEDIDYEEGKVLIHFKRWNHRYDEWFCWDSPYLRPLEKIQLRKEGLHEEDGSSEFQINEQVLACWSDCRFYPAKVTAVNKDGTYTVKFYDGVVQTVKHIHVKAFSKDQNIVGNARPKETDHKSLSSSPDKREKFKEQRKATVNVKKDKEDKPLKTEKRPKQPDKEGKLICSEKGKVSEKSLPKNEKEDKENISENDREYSGDAQKTRQTPFHSSYCCGFKLSNFATNNIGTEKKENIKRM	not soluble
MDVFNRNAERYDAWYDRNRELYEAELELLPKPISPSVEVGVGTGRFAVIGIDLGVDVSLQMLRIAKKRGVECVAGDAAHLPFKDKSFRSAYLIFTLCFLDEPIKALMEIKRVLEGTLVACVVPANSGLGREYSGKDSSFYRKARFLTEDEVLSMLRETGFKVKEIRRRKLKYDENDFVCFIAES	not soluble
MKDFITEAWLRANHTLSEGAEIHLPADSRLTPSARELLESRHLRIKFIDEQGRLFVDDEQQQPQPVHGLTSSDEHPQACCELCRQPVAKKPDTLTHLSAEKMVAKSDPRLGFRAVLDSTIALAVWLQIELAEPLGCQAIVGLSDEDLHRLSHQPLRYLGHDHLVPEASHGRDAALLNLLRTKVREAETVAAQVFITRSFEVLRPDILQALNRLSSTVYVMMILSVTKQPLTVKQIQQRLGETQ	not soluble
MTMRNFDLSPLMRQWIGFDKLANALQNAGESQSFPPYNIEKSDDNHYRITLALAGFRQEDLEIQLEGTRLSVKGTPEQPKEEKKWLHQGLMNQPFSLSFTLAENMEVSGATFVNGLLHIDLIRNEPEPIAAQRIAISERPALNS	not soluble
MKGLENAIRNLNSLDRQMVPRASIWAVNRVAQKAVSVATRKVARETVAGDNQVRGLPLKLVRQRVRLFKAGTDGKRSARIRINRGNLPAIKLGAAQVRMSKRRGKLLYRGSVLKIGPYLFRDAFIQQLANGRWHVMRRVNGKNRYPIDVVKIPLSGPLTQAFESATQSLIDEEIPKQLGYALKQQLRLYLSR	not soluble
MALSDRLELVSASEIRKLFDIAAGMKDVISLGIGEPDFDTPQHIKEYAKEALDKGLTHYGPNIGLLELREAIAEKLKKQNGIEADPKTEIMVLLGANQAFLMGLSAFLKDGEEVLIPTPAFVSYAPAVILAGGKPVEVPTYEEDEFRLNVDELKKYVTDKTRALIINSPCNPTGAVLTKKDLEEIADFVVEHDLIVISDEVYEHFIYDDARHYSIASLDGMFERTITVNGFSKTFAMTGWRLGFVAAPSWIIERMVKFQMYNATCPVTFIQYAAAKALKDERSWKAVEEMRKEYDRRRKLVWKRLNEMGLPTVKPKGAFYIFPRIRDTGLTSKKFSELMLKEARVAVVPGSAFGKAGEGYVRISYATAYEKLEEAMDRMERVLKERKLV	soluble
MDIGTQLKFLRNRRGWTMQEVADRIGKNDSTYSGYETNKRKPNAEVLVQLADIFDTTTDFILGRTENPNGLNFNVKDFLDQGRLHSDGVEITDEQAEIANVLLRQLLQRKQQ	not soluble
MGSDKIHHHHHHMPFVSYAQNLEDVRLWRALKLFPRGFYIDVGANHPRIDSVTLAFYERGWRGINIEPLPHLHRELERERPEDLNLNLAIGEREGRATLYEMAASGLSTLDPELARQRQAEGCTATPREVKVSTLDAICAAHVEGPIHFLKIDVEGLEGAVLRGLDLNRWRPWLILAETPFDHDPEWKAPLLAAGYRFVHFDGLNGYYLAEEQARLEGAFALPPNLLDDFQLCHGHAMSHPVAPLEQALEQALQRAEDAERALRDWRALPWYRRLFG	not soluble
MGHHHHHHSHINTPEQTVPYGLSNYRGSFRGKRSAGPLPGNLQLSHRPHLRCACVGRYDKACLHFCTQTLDVSSNSRTAEKTDKEEEGKVRGANRGLCQRRLKSRTNKASRL	not soluble
MFGMSVFHSVLERLKAEQAEELTNEARGGWRGTVIGAAPGFIAESSAHAWASRGAVEQAYRALAADERSEPFSMPDYLTRTSLAEVASELALGEAETALTLAAKRRRFAAANHPDRLPVEARVNATLRMKLANMLIDEALRRIEKPTVTG	not soluble
MINSKVKPQAVVADAHEDTIRSLYMESLHLVERLHRRLLDVIKDEFDRQGRDDVNAVQALLLFNIGNSELTAGELRSRGYYLGSNVSYNVKKLVDLGLINHQRSRVDRRSVRISLTEEGQAIAETVARLYERHVGSIEKVGGIGTGEFSEMNKLLQRLDRFWNDSIAYRL	not soluble
SNATGLGELKISDTICAQNAVEALPALSVDEPTVTMTFQVNTSPFAGKEGKFVTSRNILERLEKELVHNVALRVEQTDDPDKFRVSGRGELHLSILIENMRREGFELAVSRPEVIIKEEDGQLMEPFETVTIDVMEEHQGGIMENIGLRKGELKDMAPDGKGRVRMDFIMPSRGLIGFQTEFMTLTSGSGLLYHTFDHYGPHKGGNIGQRVNGVLIANAAGKALTNALFNLQERGRLFIGHGVEVYEGMVIGIHSRDNDLTVNALKGKQLTNVRASGTDDAQVLTPPIVMTLEQALEFIDDDELVEVTPESIRIRKKFLTESDRKRASRSAK	soluble
MAHHHHHHMMAIRNMLRKIIIKHGKVANAVWVPKRFINMNPTGNEEKVTQERNKRDYILSLDEALYLSKEMGIKTTTEIQKIIMRSPPFSPDMSPFLIDNFLSSANKDRHSDEIDQIDLKLKELQERDSNPEESEQGEDEGAVENSKINISHDREENIINKILIDKFNKKRGKTFIHNDMEWLEESEGIGTNKRSCAYVYIKRGSGIVKVNDEEDLYIRWPYFYNRMDVLEPFYVTNTSCVFDVFIKLKGGGISGQSKAARLAIGRALLNACPLIYDDLQQHHILYEDMRQKFPKMPGRKKSRAMKQWSKR	not soluble
MGGMHAHVILAAGQGTRMRSRLPKVLHPLLGKPMLLYALEAALALKPERLVVVVGHGGEKVVEALEGYPVEVAWQKEQLGTAHALLQAEGLLRDFPGPFLVTQGDTPLLSPRTLEALLRRVREGAGMALLTAELPDPTGYGRILREGEEVLGNVEEKDAPPEVRAIREVNAGAYAFDGFLFQALKEVRNENAAREYYLPDLIAIYRAHGRRVLAVRGVAEEALGVNTREELARVEGVLLRRLRAEWMGKGVRMILPETIYLEPSVELAPDVTLWPGAVLKGKTRIGEGCEVGPYAVLEDTVLEPGAKVLAHTVAQGAHLHPGASAGPFARLRPGAVLMEEVHVGNFVEVKNSLLHKGVKAGHLAYLGDAEVGEGTNIGAGVITANYDGKRKHKTEIGKKAFIGSNSVLVAPVRVGDRALVGAGSVITQDVPEGALAVARERQKNLEGYALRKLGEG	soluble
MGHHHHHHSHMTLIYVDADNTRNELKATTGSNFTITHRKDPLTTKWKTVFGNNGDQWLCNVTGIGNATVNSNATICVSSCGHNTLDLCNLKSGDSGFFDLSRWFGENMDEYSGDVWHLEVS	soluble
MPSYKLTYFNVRGYGEPARILFHLADVPFEDFRMTIGDGTWENLKAKTPFGQAPVLSVDGFEIPQSAAINRYLAKQFGYAGKTPEEQAWTDAIVDQYKDFMVSIKEVGKASAAGKSAEEVGKIIQSDLVPARDAFFVIINKILEKSKSGFLVGDGLTIADIVIVECITTLDKHQLFTASEQPKLVALREKVYAIPAIKKWVEIRPDTLN	not soluble
MSLSENPGATAQILSYNHVLSQLNREKTDVTEAKSLLNTAETSLSSMSTSMNRVNALVLQAINGTSDKDNMSQSAEEIKGLLDVLISVANSEDDGRYVFSGSSTSVKPFTTDKTTGEIIYNGTTENKKFRVTDTLEVEVFHDGSAMTDVFNNIQKIVDAMKSGDKDALSALQETNSKNIEIITNSMTNIGGQKNGVTAYDNVLSSKIVDFSERKSNVEEVNMPEAVSNLNKTSIAYQAALQSSVMVQKLSILNYMEGHHHHHH	soluble
MGSSHHHHHHSSGLVPRGSDYMFKLLLIGNSSVGKTSFLFRYADDSFTPAFVSTVGIDFKVKTVYRHDKRIKLQIWDTAGQERYRTITTAYYRGAMGFLLMYDIANQESFAAVQDWATQIKTYSWDNAQVILVGNKCDLEDERVVPAEDGRRLADDLGFEFFEASAKENINVKQVFERLVDVICEKMNE	soluble
MSLCQLLGMNCNTPTDIMFSFEGFRRRGGITDHHADGFGIGFFEGKGVRLFHDDKPSVNSPVADLVRAYQIKSENVIAHIRKASQGQTSLANTHPFMREMWGGYWLFAHNGHLIDFFPEQGEFFHPVGTTDSERAFCHILNRLRTRFAARPDDDTLFDAIAGLTHEIRKFGLFNFMLSDGIALFAHASTLLHYIVRQAPFGKARLLDDDVMVDFAEVTTPSDRVAVIATLPLTRDESWSQLAVDELVMFREGNIVRHDRPENPVYMSAEEGLEIARAEGGSHHHHHH	soluble
MNKSESRYYATAARMDEAFLTLLAKKDFEYITVKEICEVAGVNRSTFYLHYETMSDLLSESISRINEQFLAYMEKDSDAFSAKLRNCPRDELYLITPDYLTPYLSYIKNNKRLFRTATENAAVLGMDKSYDRMFRHVFTPILDRYGVLQQDRPYIMAFYIRGLMAIISEWLKNDCTDSITYVTGVIQQCVKMPQSETMNAV	not soluble
MAHHHHHHMRKKGSGFIGGKLNLKIKKKKKNAKQEARHGEASHVDSVAKSGEAVQVKSDPSEHDGKKDGSEKIIKGTGRITTEKNTVRGVRTDFMAEIKEGYDIILENPSTFRNERRTVTSVLSNKTLLVHEEFTTDISTTCAFYIASGGKSGGKPVGQPADTPEAHIGVEYAKVFEQTSRQDQVEVREKTGLWSYRVVKKKVDGRLTNEEKLDMRVRSGRDKFCW	not soluble
MLPPYNYMDNGTLKGISIDLLEAITEKMGKKVTREEIHLVSWTEGYQAALTRNNTVLFVTARTPEREQSFKWVGPIYSDKYVLFAKRDPGVTIDGPEDLKEYRIGVISDDVAAQQLLNIGVNQSQLEHHHHHH	not soluble
MANLTRRQWLKVGLAVGGMVTFGLSYRDVAKRAIDGLLNGTSGKVTRDRIFGNALIPEAQAQTHWQQNPQQTIAMTQCFGCWTQCGIRARVNADGKVIRIAGNPYHPLSQEHPIDSSVPFSEAMEQLAGESGLDARSTACARGATLLESLYSPLRLLEPMKRVGKRGEGKWQRISFEQLIEEVVEGGDLFGEGHVDGLRAIHAPDTPIDAKHPSFGPKTNQLLVTNTSDEGRDAFLRRFALNSFGSKNFGAHGAYCGLAYRAGSGALMGDLDKNPHVKPDWENVEFALFMGTSPAQSGNPFKRQARQLASARLRENFQYVVVAPALPLSTVLADPRGRWQPVMPGSDSALAMGMIRWIMDNQRYNADYLAIPGVQAMQQAGEQSWTNATHLVIADELPTLAGQHLTLRHLTPDGEETPVVLNTDGELVDASTCRQARLFVTQYVTLADGQRVTVKSGLQRLKEAAEKLSLAQYSEQCGVPEAQIIALAETFTSHGRKAAVISHGGMMAGNGFYNAWSVMMLNALIGNLSLSGGVFVGGGKFNGVSDGPRYNMNSFAGKVKPSGLSIARSKTAYEASEEYRDKIAGGQSPYPAKAPWYPFVAGQLTELLTSALEGYPYPLKAWISNMSNPFYGVPGLRAVAEEKLKDPRRLPLFIAIDAFMNETTALADYIVPDTHNFESWGFTAPWGGVASKATTARWPVVAPATHRTADGQPVSMEAFCIAVAKRLHLPGFGDRAITDPQGNTFPLNRAEDFYLRVAANIAFMGKTPVALANQEDISLTGVSRILPAIQHTLKADEVGRVAFIYSRGGRFAPEDSGYTEQRLGNAWKKPLQIWNADVAAHRHAITGERFSGCPVWYPARLSDGRAIDDQFPIGQWPLKLISFKSNTMSSSTAVIPRLHHVKPANLVALNPQDGERYGLQHGDRVRIITPGGQVVAQISLLNGVMPGVIAIEHGYGHREMGATQHSLDGVPMPYDPQIRAGINLNDLGFADPTRTITNTWLDWVSGAAVRQGLPAKIERI	not soluble
